Drawing on patent publication US7101851 (dated 2006), this text covers IC50 for eleven molecules.

One may read the IC50 as the concentration that gives 50% inhibition. A high value points to lower potency.

Bridges are numbered along the chain shown (N, C = ends). Where no end group is shown, it is not given here. [ ]: non-standard residue; d: D form. Ava = NCCCCC(=O)O

For this experiment, the target named is T1, alpha subunit of the human FcεRI receptor (IgE high affinity receptor), expressed on Chinese hamster ovary … (human, UniProt P12319 26-257).
T1 construct: whole, on cells; also called CHO FcεRI+ cells; FcεRIα
T1 sequence (looked up): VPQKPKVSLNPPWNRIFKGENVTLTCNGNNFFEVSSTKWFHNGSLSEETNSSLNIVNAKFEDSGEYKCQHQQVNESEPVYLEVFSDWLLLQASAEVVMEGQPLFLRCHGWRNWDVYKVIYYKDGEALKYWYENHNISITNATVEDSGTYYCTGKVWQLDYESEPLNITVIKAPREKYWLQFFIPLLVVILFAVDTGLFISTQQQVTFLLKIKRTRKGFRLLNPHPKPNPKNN
Nature of the experiment: inhibition of 125I-IgE binding to CHO cells expressing human FcεRI alpha; competitor IgE. Summed up:
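CHO cells expressing human FcεRI alpha were plated at 5 × 10^4 cells per well overnight, then given peptides serially diluted 1:3 from 50–500 uM starting concentrations in F12/DMEM with 1% BSA, 0.05% NaN3 and Hepes pH 7.2. Inhibition of 125I-IgE binding was measured.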

B1: IGE185 (peptide)
peptide: VQCPHFCYAEPLCPDVCYV-NH2
modifications: disulfide 7-13, 3-17; N-terminus assumed
SMILES: CC(C)C[C@@H]1NC(=O)[C@@H]2CCCN2C(=O)[C@H](CCC(=O)O)NC(=O)[C@H](C)NC(=O)[C@H](Cc2ccc(O)cc2)NC(=O)[C@@H]2CSSC[C@H](NC1=O)C(=O)N1CCC[C@H]1C(=O)N[C@@H](CC(=O)O)C(=O)N[C@@H](C(C)C)C(=O)N[C@H](C(=O)N[C@@H](Cc1ccc(O)cc1)C(=O)N[C@H](C(N)=O)C(C)C)CSSC[C@H](NC(=O)[C@H](CCC(N)=O)NC(=O)[C@@H](N)C(C)C)C(=O)N1CCC[C@H]1C(=O)N[C@@H](Cc1c[nH]cn1)C(=O)N[C@@H](Cc1ccccc1)C(=O)N2
The molecule B1 came in with an IC50 of 0.076 µM.

B2: IGE188 (peptide)
peptide: VQCPHFCYELDYEADRLCPDVCYV-NH2
modifications: disulfide (positions not given here); also: two disulfides, pairing not settled
For B2, the concentration for half-maximal inhibition (IC50) was determined as 0.98 µM.

B3: IGE203 (peptide)
peptide: VQCPKFCYE[Ava]CPDVCYV-NH2
modifications: disulfide (positions not given here); not fully specified (bridges); printed as VQCPKFCYEavaCPDVCYV-nh2; also: dimer
The molecule B3 had an IC50 of 12.9 µM.

B4: IGE189 (peptide)
peptide: VQCPHFCYELDYEAGDERLCPDVCYV-NH2
modifications: disulfide (positions not given here); also: two disulfides, pairing not settled
The molecule B4 had an IC50 of 0.15 µM.

B5: IGE202 (peptide)
peptide: VQCPDFCY[Ava]CPDVCYV-NH2
modifications: disulfide (positions not given here); not fully specified (bridges); printed as VQCPDFCYavaCPDVCYV-nh2
Molecule B5 displayed an IC50 of 132 µM.

B6: IGE186 (peptide)
peptide: VQCPHFCYEL[Ava]ELCPDVCYV-NH2
modifications: disulfide 7-14, 3-18
As to B6, the IC50 came out at 0.18 µM.

B7: IGE199 (peptide)
peptide: VQCPDFCY[Ava]LCPDVCYV-NH2
modifications: disulfide (positions not given here); not fully specified (bridges); printed as VQCPDFCYavaLCPDVCYV-nh2
Turning to B7, the IC50 is 6.67 µM.

B8: IGE198 (peptide)
peptide: VQCPHFCY[Ava]LCPDVCYV-NH2
modifications: disulfide (positions not given here); not fully specified (bridges); printed as VQCPHFCYavaLCPDVCYV-nh2
B8 showed an IC50 of 7.8 µM.

B9: IGE200 (peptide)
peptide: VQCPKFCY[Ava]LCPDVCYV-NH2
modifications: disulfide (positions not given here); not fully specified (bridges); printed as VQCPKFCYavaLCPDVCYV-nh2
In the case of B9, the IC50 amounted to 11.7 µM.

B10: IGE201 (peptide)
peptide: VQCPDFCY[Ava]LCPDQCYV-NH2
modifications: disulfide (positions not given here); not fully specified (bridges); printed as VQCPDFCYavaLCPDQCYV-nh2
Take B10: the IC50 amounted to 14.6 µM.

B11: IGE187 (peptide)
peptide: VQCPHFCYE[Ava]ELCPDVCYV-NH2
modifications: disulfide (positions not given here); not fully specified (bridges); printed as VQCPHFCYEavaELCPDVCYV-nh2
In turn, B11 showed an IC50 of 0.09 µM.
